The target in one test is the best Ab2. The test can be described thus: unlabeled 14G2a competing with plate-bound 14G2a for 125I-labeled Ab2.
In test [1] the target is monoclonal anti-GD2 antibody 14G2a. The test can be described thus: competition RIA, Ab2 mixed with 125I-14G2a, M21/P6 cell monolayer.
The target is the same in test [2]. The test can be described thus: competition RIA, 5 µl Ab2 hybridoma culture supernatant, 125I-14G2a on GD2-positive M21/P6 cells.
The target is the same in test [3]. The test can be described thus: competition assay, Ab2 against 14G2a binding to GD2-expressing M21/P6 cells.

On to monoclonal anti-GD2 antibody 14G2a, for which the % inhibition (commonly the change of the read-out against control, counted positive when it falls) in the test with the best Ab2 is more than 90%.

B1: monoclonal anti-idiotype antibody 1A7 (antibody, V domains shown)
VH: QVQVKESGPFLVPPSQSLSITCTVSGFSLTTYGVSWIRQPPGKGLEWLGAIWGDGTTNYHSALISRLSISKDNSKSQVFLKLNSLQTDDTATYYCAKLGNYDALDYWGQGTSVTVSS
VL: DVFMTQTPLSLPVSLGDQASISCRSSQSIVHSNGNTYLEWYLQKPGQSPNLLIYFVSNRFSGVPDRFSGSGSGTDFTLKISRVEAEDLGVYYCFQGSHVPWTFGGGTKLEIKR
In test [1], B1 displayed a lowest amount that inhibits 14G2a binding to GD2 expressing cells of 25 ng. In addition, the % inhibition of binding of radiolabeled 14G2a to M21/P6 cells in test [2] was more than 70%. This molecule had a % inhibition of binding of 14G2a to M21/P6 cells in test [3] of more than 75%.

Values taken from US20050287148A1.
